{"source": "patent US20040253224A1", "about": "“Mammalian mucinase, its recombinant production, and its use in therapy or prophylaxis against diseases in which mucus is involved or infectious diseases” (priority 2001, published 2004)", "origin": "cited, not measured here", "molecules": {"B1": {"name": "recombinant human DNase I: recombinant human deoxyribonuclease I, an enzyme that selectively cleaves DNA (Pulmozyme, Genentech) (protein, UniProt P24855 23-282, looked up)", "Deoxyribonuclease-1": "LKIAAFNIQTFGETKMSNATLVSYIVQILSRYDIALVQEVRDSHLTAVGKLLDNLNQDAPDTYHYVVSEPLGRNSYKERYLFVYRPDQVSAVDSYYYDDGCEPCGNDTFNREPAIVRFFSRFTEVREFAIVPLHAAPGDAVAEIDALYDVYLDVQEKWGLEDVMLMGDFNAGCSYVRPSQWSSIRLWTSPTFQWLIPDSADTTATPTHCAYDRIVVAGMLLRGAVVPDSALPFNFQAAYGLSDQLAQAISDHYPVEVMLK"}}, "key": {"[1]": {"conditions": "aerosolized, Phase 3, cystic fibrosis patients"}, "[2]": {"conditions": "in vitro"}}}
{"molecule": "B1", "values": [{"measurement": "improvement in FEV1", "setting": "[1]", "result": "5.6-5.8%"}, {"measurement": "reduction in respiratory exacerbations", "setting": "[1]", "result": "28-37%"}, {"measurement": "mucociliary transportability of CF sputum", "setting": "[2]", "result": "increased"}, {"measurement": "viscosity and adhesiveness of purulent CF sputum", "setting": "[2]", "result": "decrease"}]}
